For this assay, the target named is Cas9 protein fused to 10 tandem copies of GCN4 peptide separated by linkers (SunTag) (Streptococcus pyogenes) (UniProt Q99ZW2). The experiment in a line: cell-based or functional assay.

The values that follow come from patent publication US20250354164A1.

Sequence of UniProt Q99ZW2 (Q99ZW2 whole entry, the tested form may be a part): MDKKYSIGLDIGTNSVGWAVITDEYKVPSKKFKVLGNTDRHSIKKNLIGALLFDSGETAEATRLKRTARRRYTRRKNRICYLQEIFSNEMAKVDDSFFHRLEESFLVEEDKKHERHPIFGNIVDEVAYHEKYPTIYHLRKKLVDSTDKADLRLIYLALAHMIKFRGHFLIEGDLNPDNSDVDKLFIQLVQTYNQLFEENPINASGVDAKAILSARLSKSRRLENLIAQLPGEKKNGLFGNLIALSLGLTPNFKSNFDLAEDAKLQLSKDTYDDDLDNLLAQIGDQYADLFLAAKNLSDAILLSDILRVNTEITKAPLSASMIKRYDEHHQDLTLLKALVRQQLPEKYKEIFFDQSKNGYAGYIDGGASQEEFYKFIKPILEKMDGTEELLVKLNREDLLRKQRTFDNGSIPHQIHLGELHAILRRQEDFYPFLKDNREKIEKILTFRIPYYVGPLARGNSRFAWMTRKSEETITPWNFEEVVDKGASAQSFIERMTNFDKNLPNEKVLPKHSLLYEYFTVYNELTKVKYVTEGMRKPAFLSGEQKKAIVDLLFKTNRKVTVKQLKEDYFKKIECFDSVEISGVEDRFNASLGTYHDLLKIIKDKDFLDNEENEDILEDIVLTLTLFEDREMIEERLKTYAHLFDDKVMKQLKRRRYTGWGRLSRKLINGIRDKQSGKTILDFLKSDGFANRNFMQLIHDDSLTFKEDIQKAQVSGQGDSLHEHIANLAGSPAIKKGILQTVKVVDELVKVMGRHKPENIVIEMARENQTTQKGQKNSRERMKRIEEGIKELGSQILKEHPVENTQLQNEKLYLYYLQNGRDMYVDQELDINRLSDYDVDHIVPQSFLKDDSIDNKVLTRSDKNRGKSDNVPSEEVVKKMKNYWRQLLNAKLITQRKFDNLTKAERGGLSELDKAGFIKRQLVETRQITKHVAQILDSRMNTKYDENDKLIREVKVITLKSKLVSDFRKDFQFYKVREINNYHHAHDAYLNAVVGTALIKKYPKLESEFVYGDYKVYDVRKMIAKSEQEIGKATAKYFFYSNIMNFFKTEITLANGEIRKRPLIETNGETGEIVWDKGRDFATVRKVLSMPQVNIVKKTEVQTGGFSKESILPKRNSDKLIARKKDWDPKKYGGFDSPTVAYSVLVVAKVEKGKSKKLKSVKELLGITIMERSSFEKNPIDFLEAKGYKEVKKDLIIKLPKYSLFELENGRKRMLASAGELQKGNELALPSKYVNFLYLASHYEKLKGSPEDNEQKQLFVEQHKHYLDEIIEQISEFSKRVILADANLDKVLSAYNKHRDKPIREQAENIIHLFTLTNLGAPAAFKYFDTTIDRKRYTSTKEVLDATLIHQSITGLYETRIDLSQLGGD

As to “REDIT recombinator protein (SSAP RecT) fused to scFV antibody peptide (SunTag recruitment)”, the HRD efficiencies (mKate knock-in assay) was determined as 2 fold.
